From article PMC3474606

Columns and labels:
[1] = biological target: recombinant gp120 from HIV-1(ADA) strain (HIV-1 (ADA)); experiment: ELISA
[2] = biological target: recombinant gp120 from HIV-1(ADA) strain (HIV-1 (ADA)); experiment: SPR
[3] = biological target: recombinant gp41 protein from HIV-1(HxB2) (HIV-1 (HxB2)) (UniProt P04578); experiment: SPR
[4] = biological target: recombinant gp120 from HIV-1(IIIB) strain, glycosylated (HIV-1 (IIIB)) (UniProt P04578); experiment: SPR
[5] = biological target: GRFT D112A (red algae) (UniProt P84801); experiment: AUC
[6] = biological target: GRFT D30A (red algae) (UniProt P84801); experiment: AUC
[7] = biological target: wild-type griffithsin (GRFT) (red algae) (UniProt P84801); experiment: AUC
[8] = biological target: monomeric gp120 derived from HIV-1/JR-FL (HIV-1 (JR-FL)); experiment: SPR
[9] = biological target: trimeric gp140 derived from HIV-1/JR-FL (HIV-1 (JR-FL)); experiment: SPR

Substance: GRFT D70A (from UniProt P84801 1-121) (natural protein)
- fold reduction in binding against wild-type GRFT [1]: 10 fold
- Kd [2]: 0.194 nM
- Kd [3]: 0.165 nM
- Kd [4]: 0.245 nM

Substance: GRFT D112A (from UniProt P84801 1-121) (natural protein)
- fold reduction in binding against wild-type GRFT [1]: 10 fold
- stoichiometry N [5]: 2
- Kd [2]: 0.122 nM
- Kd [3]: 0.131 nM
- Kd [4]: 0.142 nM

Substance: GRFT D30A (from UniProt P84801 1-121) (natural protein)
- fold reduction in binding against wild-type GRFT [1]: 10 fold
- stoichiometry N [6]: 2
- Kd [2]: 0.123 nM
- Kd [4]: 0.156 nM

Substance: wild-type griffithsin (GRFT) (from UniProt P84801 1-121) (natural protein)
- stoichiometry N [7]: 2
- Kd [8]: 0.111 nM
- Kd [2]: 0.0732 nM
- Kd [9]: 0.152 nM
- Kd [3]: 0.0449 nM
- Kd [4]: 0.0727 nM
